Consider 2 substances from publication PMC5979607, “Crystal Structure of the Isocitrate Dehydrogenase 2 from Acinetobacter baumannii (AbIDH2) Reveals a Novel Dimeric Structure with Two Monomeric-IDH-Like Subunits” (International Journal of Molecular Sciences, 2018).

Series [1] deals with O=C(O)CC(C(=O)O)C(O)C(=O)O. Nature of the series: purified protein. The note with it: Mn2+ (2 mM MnCl2), NADP+ co-substrate, 35 mM Tris-HCl pH 7.5, 25 °C, DL-isocitrate in the assay.
In series [2] the test system is NC(=O)c1ccc[n+]([C@@H]2O[C@H](COP(=O)(O)OP(=O)(O)OC[C@H]3O[C@@H](n4cnc5c(N)ncnc54)[C@H](OP(=O)(O)O)[C@@H]3O)[C@@H](O)[C@H]2O)c1. The series is described as follows: purified protein. The note with it: Mn2+ (2 mM MnCl2), 1.0 mM isocitrate, 35 mM Tris-HCl pH 7.5, 25 °C, varied: cofactor.
The target in series [3] is Isocitrate dehydrogenase 2 from Acinetobacter baumannii (AbIDH2) (Acinetobacter baumannii). Nature of the series: AUC; sedimentation velocity, Beckman XL-A, An-60 Ti rotor, 20 °C, 45,000 g, continuous c(s) distribution.
Series [4] has the same target. Nature of the series: SEC; analytical gel filtration, Superdex 200 10/300 column, 50 mM NaH2PO4 pH 7.5, 300 mM NaCl, flow rate 0.5 mL/min; mass from a calibration curve. (In general: Size exclusion chromatography separates by hydrodynamic size, large species first.)

What is called Km is the substrate concentration at which the rate is half of its maximum. What is called kcat is the number of substrate molecules converted per active site and unit of time at saturation. A word on the kcat/Km: it is the second-order rate constant that governs catalysis at low substrate concentration. Broadly, the stoichiometry N is a count of units in the complex or per binding partner.

As to “AbIDH2 (Acinetobacter baumannii ATCC 19606 = CIP 70.34 = JCM 6841)”, in series [1], the Km is 20.6 ± 3.1 µM and the kcat stood at 39.2 ± 2.1 s⁻¹. Besides, in series [2], the Km came to 94 ± 6 µM, the kcat turned out to be 36.9 ± 1.2 s⁻¹ and the kcat/Km was 390000 M⁻¹ s⁻¹.
Regarding “Isocitrate dehydrogenase 2 from Acinetobacter baumannii (AbIDH2) (enzyme)”, the stoichiometry N in series [3] and in series [4] was 2 in each case.
